Laboratory results: the DeepSol protein solubility set

experiment: soluble on expression in E. coli; label from the status in PepcDB or PDB records

Soluble on expression in E. coli, not soluble:
MGSDKIHHHHHHMKLITFVCAAFLCLPSLAQEKFPDGTPVSDWFKDSKIVDINTLGKKYILTDYGVINDSTLLQTEKIQSAIDAAAQNGGGVIVIPKGTYLSGALFFKPKTHLHLEEGAVLKGSDDISNFPIIDTRMEGQSLKYFAALVNADKVDGFTLSGKGTIDGNGLRYWKSFWLRRKVNPQCTNMDELRPRLVHISHSNNVQLSGVRLINSPFWTTHLYKCNHIKLLNLYIFSPEKPVKAPSTDAIDIDVCSNVLVKNCYMSVNDDAIALKGGKGPWADQDPNNGGNFNIIIEDCTYGFCHGALTCGSESIHNRNIILRRIHITNANRLLWLKMRPDTPQQYEYILVEDITGDADHFLYIKPWTQFFDLKDRKDIPVSYSNHVTMRNIDFKCDNFFSVEKSDQYQLTNFTFENLNIKAKNGECDKEMIDNFIWKKVSINNIK
MGSDKIHHHHHHMKLLMIELHQEDCSNIAVSEKIKDAELNLVNVREDGDYTHIDAIFLGDMFKENVISTLRKEKAFNINLKMKSRSEIWVSYDILTTAAWRNFSSLGCTVVPPLRVANGVEKWFVYTPDEISQRDIKRQLEMDNATHISRIRELTLKSFLKVIFNMDFLSDFIDTMEALTDLQVKTIKQAYVNGYYDYPRRCTLGDLAKINGISKNAMAKRLKSVEKKIFECLFGYI
MGSDKIHHHHHHMKLRCAIVDDEPLALSLLESYVNKTPFLELAGKYSSAVQAMKELPGNQIDLLFLDIQMPELNGLEFSKMVAPRTRIVFTTAFGQYAIDGYRVNALDYLLKPISYVDFLQAANKALQWFELVQKPEEVDSIFVKSDYKLVQVELKKILYIEGLKDYIKIYTEDAPKPILSLMSMKSMEELLPPARFMRVHRSFIVQKDKIRIIDRGRIVFDKTYIPVSDSYKQTFQTFLDERS
MGSDKIHHHHHHMKLSINKNTLESAVILCNAYVEKKDSSTITSHLFFHADEDKLLIKASDYEIGINYKIKKIRVESSGFATANAKSIADVIKSLNNEEVVLETIDNFLFVRQKSTKYKLPMFNHEDFPNFPNTEGKNQFDIDSSDLSRSLKKILPSIDTNNPKYSLNGAFLDIKTDKINFVGTDTKRLAIYTLEKANNQEFSFSIPKKAIMEMQKLFYEKIEIFYDQNMLIAKNENFEFFTKLINDKFPDYEKVIPKTFKQELSFSTEDFIDSLKKISVVTEKMRLHFNKDKIIFEGISLDNMEAKTELEIQTGVSEEFNLTIKIKHLLDFLTSIEEEKFTLSVNEPNSAFIVKSQGLSMIIMPMIL
MGSDKIHHHHHHMKLVEITREEIRGDLVGLVPVGSIEQHGPHLPMGTDGIISEYIASKAEEKLKDITLLFPTIYYGVSLEHKGFPFVSLSFQTAISFFTDLLESVFNDLGLRRIIIVNGHGGNSYFLPLVQREFNMKHSDAKVIVFNTFGEEEKILFNVNDLHAGTIETSKIWAIGKSLVRVNKIDEIKNYEVRDGVFIYYSSREANQFGVLNDGKPIRVNEEYGKKILRDLVDKLIWTILNFKV
MGSDKIHHHHHHMKLVFRWYGEKHDTVTLEQIRQIPGVEGVVGALFDIPVGEVWPFEEIMKLKETVEKAGLKLEVIESVNVHEDIKLGLPTRDRYIENYKKTIRNLAKAGVKVVCYNFMPVFDWMRTDLHKKLPDGSETMEYDHRLIEGVTPDELIKRVKEGSQGFVLPGWEWDRLEKLRETFELYKNVDEEKLFENLVYFLERVIPVCEECDVKLAIHPDDPPWSIFGLPRIITNKENIERMLKAVDSPYNGITFCMGSLGANPENNIPEMIRYFGKMGRIHFAHVRNLKFTGEKSFYETAHPSFCGSHDLFEVMKAFHDIGYEGYIRPDHGRLIWGEKARPGYGLYDRALGATYILGLWEAIDKMKKRYC
MGSDKIHHHHHHMKNLFLYCRAGYEKDCAAEIQQRAAELGIGGFVKANRDDAYVVFQGFSPDDGDRLAKELPLDSLIFARQMFACGDLLDDFSPEDRVTPIAESLTEVERAGELRVETPDTNEAKELSAFCRKFTVPLRQALKKRGVLLDKESSRRPIVHVCFVAPNKAFTGYSLSNNSSPHFMGIPRLKFPADAPSRSTLKLDEAFIHFIPREEHETRLRSGLNAVDLGACPGGWTYQLVRRGMMVHAIDNGPMNHDLMETGQVTHHRADGFKFEPARRNIYWLVCDMVEKPARVAELMEYWAIQGWFKEAIFNLKLPMKSRYKEVSQILANMHAILKENGIHEFHLACKHLYHDRDEVTVHLWLRPSSPWI
